The target of the experiment is C-PfCSP (recombinant PfCSP C terminus, linker and αTSR subdomains) (Plasmodium falciparum NF54, UniProt P19597). The experiment in a line: ELISA.

B1: 1710 IgG (antibody, V domains shown)
VH: EVQLQESGGGLVKPGGSLRLSCAASGFTFSSYSMNWVRQAPGKGLEWVSSITSSSSYIYYADSVKGRFTISRDNAKNSLYLQMNSLRAEDTAVYYCARDPGIAAADNHWFDPWGQGTLVTVSS
VL: not shown
Consider B1, for which the binding result is recorded as “binds”.
